Data from US20240108766A1 (Bayer, published 2024).
Residue numbers refer to the chain shown, from its start.

B1: TPP-12942 (antibody, human IgG1, kappa, V domains shown)
VH: EVQLVQSGAEVKKPGASVKVSCKASGYKFSSYWIEWVKQAPGQGLEWIGEILPGSDTTNYNEKFKDRATFTSDTSINTAYMELSRLRSDDTAVYYCARDRGNYRAWFGYWGQGTLVTVSS
VL: DIQMTQSPSSLSASVGDRVTITCRASQDISNYLNWYQQKPGGAVKFLIYYTSRLHSGVPSRFSGSGSGTDYTLTISSLQPEDFATYFCQQGEALPWTFGGGTKVEIKR
notes: Prior art humanized IgG1 kappa antibody, used as comparator; also called huM25; huM25-hIgG1Kappa
B2: TPP-17078 (antibody, human IgG1, kappa, V domains shown)
VH: B1 VH
VL: B1 VL with D28S, N31S, V44P, T51A, R53S, H55Q, F87Y, E92F, A93S
notes: also called 438H-M308-H05-hIgGkappa
B3: TPP-17421 (antibody, human IgG1, kappa, V domains shown)
VH: B1 VH with T57W, G108Q
VL: B1 VL with D28S, N31S, V44P, T51A, R53S, H55Q, F87Y, E92L, A93E
notes: also called 438H-M306-C11-hIgG1Kappa
B4: TPP-14389 (antibody, human IgG1, kappa, V domains shown)
VH: EVQLLESGGGLVQPGGSLRLSCAASGFTFSGYMMSWVRQAPGKGLEWVSGIYPSPGYTYYADSVKGRFTISRDNSKNTLYLQMNSLRAEDTAVYYCAREKASDLFGSYSEALDYWGQGTLVTVSS
VL: DIQMTQSPDSLSASVGDRVTITCRASQDVGSWLAWYQQKPGKAPKLLIFAASSLESGIPSRFSGSGSGTDFTLTISSLQPEDFATYYCQQANGFPLTFGGGTKVEIKR
notes: also called 13612-rec02-hIgG1Kappa

Columns and labels:
[1] = biological target: T1, human LRRC15 extracellular domain with C-terminal His tag (human, UniProt Q8TF66 22-538); experiment: calculated from SPR kd, 20°C
T1 construct: Recombinant, made in HEK293; the entry holds the extracellular domain and the His tag; SPR analyte; also called TPP-1545; hLRRC15 CT-His
T1 sequence: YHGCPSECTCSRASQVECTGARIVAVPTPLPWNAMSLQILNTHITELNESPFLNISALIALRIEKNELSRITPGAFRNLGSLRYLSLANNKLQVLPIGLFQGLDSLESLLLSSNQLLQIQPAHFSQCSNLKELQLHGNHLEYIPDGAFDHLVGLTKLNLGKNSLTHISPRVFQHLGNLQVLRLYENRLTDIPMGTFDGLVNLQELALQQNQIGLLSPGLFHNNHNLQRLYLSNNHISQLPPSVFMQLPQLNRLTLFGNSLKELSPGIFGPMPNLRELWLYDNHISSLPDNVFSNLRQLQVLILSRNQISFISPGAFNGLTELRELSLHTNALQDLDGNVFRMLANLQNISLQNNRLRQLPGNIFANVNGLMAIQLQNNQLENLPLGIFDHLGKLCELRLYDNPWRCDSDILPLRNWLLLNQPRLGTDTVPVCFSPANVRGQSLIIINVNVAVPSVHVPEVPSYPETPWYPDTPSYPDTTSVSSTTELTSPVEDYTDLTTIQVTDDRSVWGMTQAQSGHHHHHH
Procedure: (§1) To assess if anti-LRRC-15 antibodies show a difference in binding at different temperatures, binding assays were conducted using surface plasmon resonance (SPR). Binding assays were performed on a Biacore T200 instrument at temperatures of 10° C., 20° C., 25° C. and 37° C. with assay buffer HBS EP+, 1 mg/ml BSA (bovine serum albumine), 300 mM NaCl, 0.05% NaN₃. Antibodies were captured via anti-human Fc IgGs covalently amine coupled to a CM5 sensor chip and human LRRC15 was used as an analyte in a concentration series from 1.56-200 nM in multi cycle kinetics mode. Pre-experiments were conducted to have an equal capture level at each temperature. Obtained sensorgrams were fitted to a 1:1 Langmuir binding model to derive kinetic data.

[2] = biological target: T2, human LRRC15 expressed on cells (human, UniProt Q8TF66 22-581); experiment: flow cytometry, transfected HEK293, 0.5 µg/ml
T2 construct: whole, on cells; On HEK293 cells transfected with LRRC15/ZsGreen1 (Retrogenix), on HT29 cells transfected with human LRRC15, and endogenous on Saos-2; also called LRRC15/ZsGreen1 transfected HEK293 cells; HT29-LRRC15
T2 sequence (looked up): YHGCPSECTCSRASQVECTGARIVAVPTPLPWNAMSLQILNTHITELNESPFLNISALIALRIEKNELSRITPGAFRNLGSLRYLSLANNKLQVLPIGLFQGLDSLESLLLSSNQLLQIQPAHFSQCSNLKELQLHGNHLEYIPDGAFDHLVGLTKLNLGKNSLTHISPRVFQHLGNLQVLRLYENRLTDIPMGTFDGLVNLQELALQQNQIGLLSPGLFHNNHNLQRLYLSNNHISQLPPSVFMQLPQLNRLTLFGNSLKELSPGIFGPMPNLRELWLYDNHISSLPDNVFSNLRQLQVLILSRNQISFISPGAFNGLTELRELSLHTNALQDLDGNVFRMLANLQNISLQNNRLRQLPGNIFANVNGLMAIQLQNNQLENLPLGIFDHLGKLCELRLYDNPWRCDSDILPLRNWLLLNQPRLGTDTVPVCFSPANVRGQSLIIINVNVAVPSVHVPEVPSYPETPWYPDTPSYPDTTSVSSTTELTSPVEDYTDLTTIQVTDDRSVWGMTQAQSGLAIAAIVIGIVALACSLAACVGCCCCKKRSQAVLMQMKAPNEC

[3] = biological target: T2, human LRRC15 expressed on cells; experiment: flow cytometry, transfected HEK293, 0.02 µg/ml
[4] = biological target: T2, human LRRC15 expressed on cells; experiment: flow cytometry, transfected HEK293, 62.5 µg/ml
[5] = biological target: T2, human LRRC15 expressed on cells; experiment: flow cytometry, transfected HEK293, 0.004 µg/ml
[6] = biological target: T1, human LRRC15 extracellular domain with …; experiment: SPR Biacore T200, antibody captured, LRRC15 analyte, 37°C
Procedure: as §1

[7] = biological target: T1, human LRRC15 extracellular domain with …; experiment: SPR Biacore T200, 25°C, antibody captured, LRRC15 analyte
Procedure: (§2) To assess the binding kinetics and affinity of anti-LRRC15 antibodies as well as their species cross-reactivity profile, binding assays were conducted using surface plasmon resonance (SPR). Binding assays were performed on a Biacore T200 instrument at 25° C. using assay buffer HBS EP+, 1 mg/ml BSA, 300 mM NaCl, 0.05% NaN3. Antibodies were captured via anti-human Fc IgGs covalently amine coupled to a CM5 sensor chip and human, mouse and cynomolgus LRRC15 were used as analytes in a concentration series from 1.56-200 nM in multi cycle kinetics mode. […] Obtained sensorgrams were fitted to a 1:1 Langmuir binding model to derive kinetic data.

[8] = biological target: T3, cynomolgus (Macaca fascicularis) LRRC15 extracellular domain with C-terminal His tag (cynomolgus monkey (Macaca fascicularis), UniProt Q8TF66 22-538 (human entry)); experiment: as above
T3 construct: Recombinant, made in HEK293; the entry holds the extracellular domain and the His tag; SPR analyte; also called TPP-9046
T3 chain: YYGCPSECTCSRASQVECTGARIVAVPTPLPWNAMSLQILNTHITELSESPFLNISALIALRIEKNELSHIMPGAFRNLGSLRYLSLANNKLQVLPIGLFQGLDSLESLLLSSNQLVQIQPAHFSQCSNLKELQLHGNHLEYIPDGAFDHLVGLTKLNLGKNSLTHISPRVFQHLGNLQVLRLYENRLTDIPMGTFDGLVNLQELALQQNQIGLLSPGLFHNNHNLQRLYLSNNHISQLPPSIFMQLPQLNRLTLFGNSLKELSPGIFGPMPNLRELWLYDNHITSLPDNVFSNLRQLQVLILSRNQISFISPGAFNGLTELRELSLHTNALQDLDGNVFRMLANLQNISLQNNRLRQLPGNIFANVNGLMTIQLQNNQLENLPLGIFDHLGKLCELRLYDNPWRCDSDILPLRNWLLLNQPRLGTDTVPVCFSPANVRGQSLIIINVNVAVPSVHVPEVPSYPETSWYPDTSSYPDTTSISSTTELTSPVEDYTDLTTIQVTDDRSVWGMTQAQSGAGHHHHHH
Procedure: as §2

Row | Binder | Complex Half Life [1] [h] | Median Fluorescence AF647 [2] | Median Fluorescence AF647 [3] | Median Fluorescence AF647 [4] | Median Fluorescence AF647 [5] | Kd [6] [nM] | Kd [7] [nM] | Kd [8] [nM]
1 | B1 | 0.218 | 524000 | 63400 | 620000 | 19800 | 72 | 25 | 36
2 | B2 | 4.18 | 527000 | 83700 | 621000 | 27600 | 9.9 | 1.7 | 1.8
3 | B3 | 4.48 | 391000 | 35200 | 650000 | 13100 | 2.4 | 0.96 | 0.91
4 | B4 | 0.41 |  |  |  |  | 66 | 5.9 | 9
